In PMC3471833:

Target: human complement C1 esterase inhibitor (human) (UniProt P05155)
Sequence of UniProt P05155 (P05155 23-500): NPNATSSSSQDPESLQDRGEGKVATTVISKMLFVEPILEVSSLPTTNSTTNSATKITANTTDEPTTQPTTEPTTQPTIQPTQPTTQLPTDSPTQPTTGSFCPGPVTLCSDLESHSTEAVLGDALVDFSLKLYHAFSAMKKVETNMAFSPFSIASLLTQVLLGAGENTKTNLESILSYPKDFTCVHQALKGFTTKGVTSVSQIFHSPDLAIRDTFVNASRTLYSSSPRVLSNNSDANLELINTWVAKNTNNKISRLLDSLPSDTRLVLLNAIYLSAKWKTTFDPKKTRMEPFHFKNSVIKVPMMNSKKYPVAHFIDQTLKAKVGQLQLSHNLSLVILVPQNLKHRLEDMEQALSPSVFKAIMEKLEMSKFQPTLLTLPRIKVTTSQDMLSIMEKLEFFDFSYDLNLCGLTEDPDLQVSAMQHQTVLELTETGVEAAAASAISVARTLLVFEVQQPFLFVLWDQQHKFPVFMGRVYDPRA

percentage of dead E. coli BL21 (Live/Dead staining) after antibody 2E4 and human complement plasma treated with OSCS (25.5% without GAG, 26.5% with CSA): 8%
Substance: Activated C1s (enzyme)
